Data: the supplement of paper PMC9170038

Tested on: MS2 coat protein
Experiment: apparent KD of MS2 coat protein; designed switch direction (-1 OFF switch, 1 ON switch): 1; higher = weaker reporter binding
Outline: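 The reported apparent KD is a per-design median over clusters, from curve fits of normalised cluster fluorescence. Protein titrations used SNAP-549-labelled MS2 coat protein, doubled from 0.7 or 1.5 nM to 3 µM, in Tris-HCl pH 7.5 buffer with KCl, MgCl2, BSA, DTT, tRNA and Tween-20, with no input, 200 uM small-molecule ligand, or an oligonucleotide input. The RNA switches were transcribed on Illumina chips by stalled E. coli RNA polymerase.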

[1] = input ligand: microRNA oligo, concentration not stated
[2] = Eterna round: R95, input ligand: FMN 200 uM
[3] = Eterna round: R95, input ligand: microRNA oligo, concentration not stated
[4] = Eterna round: R95, input ligand: none

Sequence	apparent KD of MS2 coat protein (input ligand: FMN 200 uM) [nM]	apparent KD of MS2 coat protein [1] [nM]	apparent KD of MS2 coat protein (input ligand: none) [nM]	apparent KD of MS2 coat protein [2] [nM]	apparent KD of MS2 coat protein [3] [nM]	apparent KD of MS2 coat protein [4] [nM]
AAUUAAGAUUAAGGAUAUCACGUCGAUUAGACGUGAGAAGGUGAUCAUAACAUGAGGAUCACCCAUGUAUUACAUGAAUUAAUU [SSNG1/3-B2] (Eterna round: R96, puzzle: Same State NG 1)	132	113	118	–	–	–
AAUUAAGAUUGAGGAUAUCACGUCGUUUAGACGUGAGAAGGCGAUCAUAACAUGAGGAUCACCCAUGUAUUACAUGAAUUAAUU [SSNG1/5-B3] (Eterna round: R96, puzzle: Same State NG 1)	17.8	20	34	–	–	–
AAUUAAUUAAUACAUGAGGAUCACCCAUGUAAUUAUUAGAUCUAGGAUAUCAGCUCGAUUAGAGCUGAGAAGGAGAUCACAUGU [SSNG3/18-B2] (Eterna round: R96, puzzle: Same State NG 3)	–	13.6	–	–	–	–
AAUUAAUUAAUUAAGUACAUGAGGAUCACCCAUGUAAGUGAUCAGGAUAUCAGCUCGAUUAGAGCUGAGAAGGGAUCCAUGUAC [SSNG3/15-A2] (Eterna round: R96, puzzle: Same State NG 3)	–	400	–	–	–	–
AAUUAAUUAAUUAAUAUACAUGAGGAUCACCCAUGUAAGAUCAAGGAUAUCAGCUCGUGUAGAGCUGAGAAGGUGAUCACAUGU [SSNG3/16-A4] (Eterna round: R96, puzzle: Same State NG 3)	345	92.5	166	–	–	–
AAUUAAUUAAUUAAUAUACAUGAGGAUCACCCAUGUAAGAUCAAGGAUAUCAGCUCGUUUAGAGCUGAGAAGGUGAUCACAUGU [SSNG3/16-A3] (Eterna round: R96, puzzle: Same State NG 3)	447	156	302	–	–	–
AAUUAUUAACAUGAGGAUCACCCAUGUAUCAUGAUUACUAUUAUUAGUAUCAUGAAUAGGGUUUUUGCUCGUCUUAU [ben_bell_2] (puzzle: Sensor for hsa-mir-208a version 2)	–	–	–	85.9	26.2	53.5
AAUUAUUAACAUGAGGAUCACCCAUGUAUUACUUCAUGUUUUUGCUCGUCUAUUAUUAUUAUUAUUAUUAUUAUUAA [Most simple design] (puzzle: Sensor for hsa-mir-208a version 2)	–	–	–	282	40.1	340
AAUUAUUAACAUGAGGAUCACCCAUGUAUUUAUGUUAGUAUCUAACAUAGUCUUAUUAAGCUUUGUGAUUGUCUUAU [Cole's First Solution] (puzzle: Sensor for hsa-mir-208a version 2)	–	–	–	29.8	32.6	38.8
AAUUAUUAACAUGAGGAUCACCCAUGUGUUUUUGGGCUCGUUUUAUUUAUUAUUAUUAUUAUUAUUAUUAUUAUUAA [SB switch1] (puzzle: Sensor for hsa-mir-208a version 2)	–	–	–	85.3	69.1	154
AAUUAUUAACAUGAGGAUCACCCAUGUGUUUUUUGCUCGUCAUGUAUUAUUAUUAUUAUUAUUAUUAUUAUUAUUAA [my second RNA] (puzzle: Sensor for hsa-mir-208a version 2)	–	–	–	41.9	18.8	52.4
AAUUGUUCCUGAGGAUAUCAGUAGUUUGCUCUUUGAGAAGGCAGUACAUGAGGAUCACCCAUGUUGUGGUUUGAUAGAAUGAUA [JR_SSNG1_Sub006] (Eterna round: R96, puzzle: Same State NG 1)	131	103	137	–	–	–
AAUUGUUUCUGAGGAUAUCAGUAGUAUGCCAAUUGAGAAGGCAGUACAUGAGGAUCACCCAUGUUAUGGUUUGAUAGAAUGAUA [JR_SSNG1_Sub001] (Eterna round: R96, puzzle: Same State NG 1)	74.8	51.2	54.1	–	–	–
AAUUUAAUACAUGAGGAUCACCCAUGUAAAUUAAUUAAGAUCUAGGAUAUCAGCUCGUUUAGAGCUGAGAAGGAGAUCACAUGU [SSNG3/19-B3] (Eterna round: R96, puzzle: Same State NG 3)	–	12.5	–	–	–	–
AAUUUAAUACAUGAGGAUCACCCAUGUAAUACUAGUAAGAUCUAGGAUAUCAGCUCGAAUAGAGCUGAGAAGGAGAUCACAUGU [SSNG3/19-C1] (Eterna round: R96, puzzle: Same State NG 3)	24.2	63.9	82	–	–	–
AAUUUAAUACAUGAGGAUCACCCAUGUAAUACUUGUAAGAUCAAGGAUAUCAGCUCGAUUAGAGCUGAGAAGGUGAUCACAUGU [SSNG3/19-D2] (Eterna round: R96, puzzle: Same State NG 3)	–	21.6	–	–	–	–
ACAAGACAUGAGGAUCACCCAUGUAUAAAUUACACAGGAUAUCGGCAGGCAGCACCUGCACGAGAAGGGUGACUUC [Inbilera] (puzzle: Same State 1)	–	–	–	193	21.7	27.3
ACAAGCUUUUCUGUAUUGAAAGGUGGGAUACAUGAGGAUCACCCAUGUUUUUUCGUUUGUUUUGUUCCUCGUCUUAU [JR_SHM208A_Sub090] (puzzle: Sensor for hsa-mir-208a)	–	–	–	87.7	23.9	116
ACAAGCUUUUUGCUCAUCUUAUGUCCGAAACAUGAGGAUCACCCAUGUAUAGAUUAUGUGUUGUUGUAGAUGCAAGA [JR_SHM208A_Sub062] (puzzle: Sensor for hsa-mir-208a)	–	–	–	31.8	25.9	42.9
ACAAUCUGGGUAGGAUAUCUAGGAUAUGGGAAAGACUAAGUCUGUAGGUCACCUAACCCAGAUGGAGAGAAGGACCCAACACAC [pwkr ssNG2 2FMN + F9.43] (Eterna round: R96, puzzle: Same State NG 2)	95.8	3.94	202	–	–	–
ACACCACAUGAGGAUCACCCAUGUGUCAAUAACACAGGAUAUCACCCGGAAAACAACGGGUGAGAAGGGUGACCGA [Edan] (puzzle: Same State 1)	–	–	–	107	44.6	75.8
ACACGGAUACAUGAGGAUCACCCAUGUACAUGGGUUAUUACAAGCUUUUUGCUUGGGAUUAUUGGGAUUAUUAUUAA [Default title] (puzzle: Sensor for hsa-mir-208a version 2)	–	–	–	122	156	153
ACAUGAAAGGCAGGAUAUUUUGUACCUACAUGUGACAUGAGGAUCACCCAUGUGGUAAGUAUAAGAGAGAAGGGUCAGAUAUGU [Equivalence 2 - Jieux - Same State NG 2] (Eterna round: R96, puzzle: Same State NG 2)	28.9	31.7	37.2	–	–	–
ACAUGAAAGUUAGGAUAUUUUGUACCUACAUGUGACAUGAGGAUCACCCAUGUGGUAAGUAUAAGAGAGAAGGAGCAGAUAUGU [Equivalence 1 - Jieux - Same State NG 2] (Eterna round: R96, puzzle: Same State NG 2)	45.1	48.1	52.8	–	–	–
ACAUGAACAUGAGGAUCACCCAUGUUUAGGAUCACCCAUGCUCAGGAUAUAGCAUGAGGACAUGACUAGAAGGGAGGUGCUGAG [Same State NG3 S2] (Eterna round: R96, puzzle: Same State NG 3)	41	27	36.1	–	–	–
ACAUGAGAAAGAGGAUAUGUUGUACCUACAUGUGACAUGAGGAUCACCCAUGUGGUAAGUAUGAUACAGAAGGCUUAGAUAUGU [Equivalance 61 - Jieux - Same State NG 2] (Eterna round: R96, puzzle: Same State NG 2)	15.1	17.8	25.6	–	–	–
ACAUGAGACAUAGGAUAUGUUGUACCUACAUGUGACAUGAGGAUCACCCAUGUGGUAAGUAUGAGGCAGAAGGAUGAGAUAUGU [Equivalence 40 - Jieux - Same State NG 2] (Eterna round: R96, puzzle: Same State NG 2)	50.3	37	74.1	–	–	–
ACAUGAGACCUAGGAUAUGUUGUACCUACAUGUGACAUGAGGAUCACCCAUGUGGUAAGUAUGAGACAGAAGGAGGAGAUAUGU [Equivalence 28 - Jieux - Same State NG 2] (Eterna round: R96, puzzle: Same State NG 2)	12.8	21.2	32	–	–	–
ACAUGAGAGAAAGGAUAUCUUGUACCUACAUGUGACAUGAGGAUCACCCAUGUGGUAAGUAUGAGAGAGAAGGUUCAGAUAUGU [Equivalence 33 - Jieux - Same State NG 2] (Eterna round: R96, puzzle: Same State NG 2)	15.9	25.8	29.8	–	–	–
ACAUGAGAGAAAGGAUAUGGUGUACCUACAUGUGACAUGAGGAUCACCCAUGUGGUAAGUAUGACUCAGAAGGUUCAGAUAUGU [Equivalance 73 - Jieux - Same State NG 2] (Eterna round: R96, puzzle: Same State NG 2)	16.9	65.6	126	–	–	–
